This note sets out measurements from US20260001928A1 (CORTERIA PHARMACEUTICALS, priority 2022, published 2026).

As usually defined, the EC50 is the concentration that produces a half-maximal response. A low value points to higher potency in that assay.

*1 amine or outer side, *2 acyl side, *3 side chain or, on linkers, in order; H or OH if unused. Where no end group is shown, it is not given here. Side-chain parts run from the residue outwards. [ ]: non-standard residue; d: D form. The star is where a group is joined. C18 diacid = O=C(O)CCCCCCCCCCCCCCCCC(=O)*; C16 diacid = O=C(O)CCCCCCCCCCCCCCC(=O)*; γGlu = O=C(O)[C@H](CCC(=O)[*:2])N[*:1]; NMeI = CC[C@H](C)[C@H](NC)C(=O)O; αMeL = CC(C)C[C@](C)(N)C(=O)O; Pentanoyl = CCCCC(=O)*; AEEA = NCCOCCOCC(=O)O; Aib = CC(C)(N)C(=O)O

The target in assay [1] is human corticotropin-releasing factor 2a (CRF2a receptor) (human), Q13324. Kind of assay: cell-based or functional assay.
Assay [2] concerns the target T1, CRF1R receptor (UniProt P34998 24-415, limits assumed).
T1 sequence (looked up): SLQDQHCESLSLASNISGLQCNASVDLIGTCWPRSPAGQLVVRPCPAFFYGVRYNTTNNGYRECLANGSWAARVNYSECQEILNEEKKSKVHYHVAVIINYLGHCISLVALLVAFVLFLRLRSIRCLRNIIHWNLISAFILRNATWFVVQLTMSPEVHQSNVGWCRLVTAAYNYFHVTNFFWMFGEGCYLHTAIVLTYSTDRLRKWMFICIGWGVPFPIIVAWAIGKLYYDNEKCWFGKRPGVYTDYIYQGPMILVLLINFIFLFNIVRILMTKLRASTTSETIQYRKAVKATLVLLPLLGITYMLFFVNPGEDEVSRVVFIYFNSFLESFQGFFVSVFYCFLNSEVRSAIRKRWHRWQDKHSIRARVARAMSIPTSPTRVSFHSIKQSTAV
Kind of assay: cell-based or functional assay.

Sequence of human corticotropin-releasing factor 2a (CRF2a receptor) (human), Q13324 (Q13324 20-411): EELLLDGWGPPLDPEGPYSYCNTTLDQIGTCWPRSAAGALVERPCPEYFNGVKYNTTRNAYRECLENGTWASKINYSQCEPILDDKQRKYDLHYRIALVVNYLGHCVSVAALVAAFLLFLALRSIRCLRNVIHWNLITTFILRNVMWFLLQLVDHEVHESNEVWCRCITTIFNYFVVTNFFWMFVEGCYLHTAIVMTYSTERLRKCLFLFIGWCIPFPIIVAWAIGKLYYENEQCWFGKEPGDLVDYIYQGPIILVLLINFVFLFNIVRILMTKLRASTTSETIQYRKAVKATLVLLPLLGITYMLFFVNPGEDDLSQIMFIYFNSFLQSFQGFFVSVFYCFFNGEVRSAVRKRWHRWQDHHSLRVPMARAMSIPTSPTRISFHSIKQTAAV

B1: SEQ ID NO 123 (peptide)
peptide: Pentanoyl-VLSLD[dV]PIK[αMeL]K([AEEA-AEEA-γGlu-C18 diacid])KILLEQEKQKKQREQAETN[Aib]QILAQV-NH2
In assay [1], B1 registered an EC50 [nM] (cAMP) of 0.7 nM. Further, the “Emax (% I)” value in assay [2] was 14%.

B2: SEQ ID NO 2 (peptide)
peptide: Ac-IVLSLD[dV]PIKLK([γGlu-C16 diacid])QILLKQERQKKQREQAEKNKQILEQV-NH2
SMILES: CC[C@H](C)[C@H](NC(C)=O)C(=O)N[C@H](C(=O)N[C@@H](CC(C)C)C(=O)N[C@@H](CO)C(=O)N[C@@H](CC(C)C)C(=O)N[C@@H](CC(=O)O)C(=O)N[C@@H](C(=O)N1CCC[C@H]1C(=O)N[C@H](C(=O)N[C@@H](CCCCN)C(=O)N[C@@H](CC(C)C)C(=O)N[C@@H](CCCCNC(=O)CC[C@H](NC(=O)CCCCCCCCCCCCCCC(=O)O)C(=O)O)C(=O)N[C@@H](CCC(N)=O)C(=O)N[C@H](C(=O)N[C@@H](CC(C)C)C(=O)N[C@@H](CC(C)C)C(=O)N[C@@H](CCCCN)C(=O)N[C@@H](CCC(N)=O)C(=O)N[C@@H](CCC(=O)O)C(=O)N[C@@H](CCCNC(=N)N)C(=O)N[C@@H](CCC(N)=O)C(=O)N[C@@H](CCCCN)C(=O)N[C@@H](CCCCN)C(=O)N[C@@H](CCC(N)=O)C(=O)N[C@@H](CCCNC(=N)N)C(=O)N[C@@H](CCC(=O)O)C(=O)N[C@@H](CCC(N)=O)C(=O)N[C@@H](C)C(=O)N[C@@H](CCC(=O)O)C(=O)N[C@@H](CCCCN)C(=O)N[C@@H](CC(N)=O)C(=O)N[C@@H](CCCCN)C(=O)N[C@@H](CCC(N)=O)C(=O)N[C@H](C(=O)N[C@@H](CC(C)C)C(=O)N[C@@H](CCC(=O)O)C(=O)N[C@@H](CCC(N)=O)C(=O)N[C@H](C(N)=O)C(C)C)[C@@H](C)CC)[C@@H](C)CC)[C@@H](C)CC)C(C)C)C(C)C
The molecule B2 had an EC50 [nM] (cAMP) in assay [1] of 0.07 nM. In addition, in assay [2], the “EC50” value was 95.4 nM and the “Emax (% I)” value was found to be 63%.

B3: SEQ ID NO 119 (peptide)
peptide: [NMeI]VLSLD[dV]PIK[αMeL]K([AEEA-AEEA-γGlu-C18 diacid])KILLEQEKQKKQREQAETN[Aib]QILAQV-NH2
modifications: N-terminus assumed
SMILES: CC[C@H](C)[C@H](NC)C(=O)N[C@H](C(=O)N[C@@H](CC(C)C)C(=O)N[C@@H](CO)C(=O)N[C@@H](CC(C)C)C(=O)N[C@@H](CC(=O)O)C(=O)N[C@@H](C(=O)N1CCC[C@H]1C(=O)N[C@H](C(=O)N[C@@H](CCCCN)C(=O)N[C@@](C)(CC(C)C)C(=O)N[C@@H](CCCCNC(=O)COCCOCCNC(=O)COCCOCCNC(=O)CC[C@H](NC(=O)CCCCCCCCCCCCCCCCC(=O)O)C(=O)O)C(=O)N[C@@H](CCCCN)C(=O)N[C@H](C(=O)N[C@@H](CC(C)C)C(=O)N[C@@H](CC(C)C)C(=O)N[C@@H](CCC(=O)O)C(=O)N[C@@H](CCC(N)=O)C(=O)N[C@@H](CCC(=O)O)C(=O)N[C@@H](CCCCN)C(=O)N[C@@H](CCC(N)=O)C(=O)N[C@@H](CCCCN)C(=O)N[C@@H](CCCCN)C(=O)N[C@@H](CCC(N)=O)C(=O)N[C@@H](CCCNC(=N)N)C(=O)N[C@@H](CCC(=O)O)C(=O)N[C@@H](CCC(N)=O)C(=O)N[C@@H](C)C(=O)N[C@@H](CCC(=O)O)C(=O)N[C@H](C(=O)N[C@@H](CC(N)=O)C(=O)NC(C)(C)C(=O)N[C@@H](CCC(N)=O)C(=O)N[C@H](C(=O)N[C@@H](CC(C)C)C(=O)N[C@@H](C)C(=O)N[C@@H](CCC(N)=O)C(=O)N[C@H](C(N)=O)C(C)C)[C@@H](C)CC)[C@@H](C)O)[C@@H](C)CC)[C@@H](C)CC)C(C)C)C(C)C
Consider B3, for which the EC50 [nM] (cAMP) in assay [1] amounted to 1.62 nM. Also, the “Emax (% I)” value in assay [2] came to 5%.

B4: SEQ ID NO 124 (peptide)
peptide: Pentanoyl-VLSLD[dV]PIK[αMeL]K([AEEA-AEEA-γGlu-C18 diacid])KILLEQEKQKKQREQAETNVQILAQV-NH2
The molecule B4 gave an EC50 [nM] (cAMP) in assay [1] of 0.38 nM. Besides, the “Emax (% I)” value in assay [2] is 14%.
